From article PMC6959235, “A mosquito salivary protein promotes flavivirus transmission by activation of autophagy” (Nature Communications, 2020)

Molecular target: recombinant LRPPRC protein purified from 293F cells (human, UniProt P42704 60-1394)
Experiment: ELISA
Details: both partners purified

B1: Aedes aegypti venom allergen-1 (AaVA-1), recombinant, from Drosophila S2 cells (natural protein)
chain: NYCDQSLCRRGPHVACNAPTQFGSACGQEPKFVKMDARMKNLLLKKHNELRAEIACGKHGFPQAARMPTLVWDDELAHIASFNARKCIFAHDKCRNTREFKFAGQNLAITAFAGYNFQAADRAENFTQEWFNEHKDCPKSYVDSYPMSHSGPQIGHFTQMVNDRAWKMGCSMVHYKNGRVIKYYLVCNYSMTNMIEEPIYTRGSAGSKCQTGQNPQYRGLCSPREKVRSESYRG
notes: also called AAEL000793; purified AaVA-1
binding result: binds
